Assay results taken from article doi:10.1101/2025.01.15.633204.

Target: barnase (Bacillus amyloliquefaciens) (UniProt P00648)
Assay: BLI

Chain of UniProt P00648 (P00648 48-157): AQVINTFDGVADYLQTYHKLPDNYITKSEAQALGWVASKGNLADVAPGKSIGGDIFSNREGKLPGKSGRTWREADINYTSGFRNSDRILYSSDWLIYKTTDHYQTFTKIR

- Kd: < 0.1 nM
Substance: green fluorescent protein-Bs (GFP-Bs) fusion protein
